# Experimental data reported in US20230025280A1, “PH RESPONSIVE COMPOSITIONS, FORMULATIONS, AND METHODS OF IMAGING A TUMOR” (ONCONANO MEDICINE, INC, priority 2019, published 2023).
# Values joined by “and” are separate entries in the source; they are usually repeats but may differ in a detail not shown here. Equal entries are not always repeated. “Also recorded” adds a separate entry of the source.
# Experiment: Phase 1 (1a/1b) pharmacokinetics: plasma concentrations after single IV dose (validated direct fluorescence reader assay), noncompartmental analysis
# Assay type: in vivo, human
# Conditions: for AUC0-24 hr / AUCall / AUClast / C10 m / Cmax / T1/2 / Tmax: 1.2 mg/kg single IV; for Plasma Conc: 1.20 mg/kg
# Text: Phase 1 is a single-Principal Investigator, non-randomized, open-label, single-arm, cross-sectional study to evaluate the safety, PK profile, and imaging feasibility of Compound 1 in patients with solid cancers who require surgical excision. The main purpose of this study was to investigate the safety, PK, and feasibility of Compound 1 as an intra-operative optical imaging agent to detect tumors and metastatic lymph nodes in solid cancers. The study was intended to investigate the optimal dose range of Compound 1 for an adequate TBR and CNR of fluorescence obtained intraoperatively at 24 (±8) hours post dosing and with ex vivo specimens using ICG compatible cameras and imaging devices.
# Phase 1 enrolled 30 patients with solid cancers (HNSCC, breast cancer, esophageal cancer, or colorectal cancer) who have a biopsy-confirmed diagnosis of respective tumor types and are scheduled to undergo surgical resection of the tumor. The study design included a standard 3+3 design for the dose-escalation portion (Phase 1a; N=18 maximum) followed by a dose-expansion portion (Phase 1b; N=15). All patients received a single I.V. dose of Compound 1, followed by routine surgery approximately 24 hours after infusion of Compound 1.
# Phase 1a was a dose-finding study performed in 5 cohorts of 3 patients each. The dose levels evaluated were […], and 1.2 mg/kg, in this sequence. Inter-cohort dose escalation took place after the last patient in the previous cohort completed the Day 10 safety assessment. Safety, PK, and imaging feasibility were evaluated in both the Phase 1a and 1b portions of the study. Patient safety is assessed during the study and for up to 10 days post-dose.
# Study design: Single Compound 1 IV dose was administered as a 1-5 minute IV infusion to patients in five cohorts (0.1, 0.3, 0.5, 0.8, and 1.2 mg/kg) with three patients per cohort in Phase 1a and 15 patients at a dose of 1.2 mg/kg in Phase 1b. Patient demographic information including tumor types is presented in Table 4 and 5 for Phase 1a and Table 5 for Phase 1b. Intertek Pharmaceutical Services (San Diego, Calif.) determined Compound 1 plasma concentrations using a validated direct fluorescence reader assay. Pacific BioDevelopment (Davis, Calif.) performed the PK analysis.
# Sample collection: Blood samples were collected prior to infusion and at 10 minutes and 0.5, 1, 3, 8, 24, 48, 72, and 240 hours after infusion.
# Analysis: Plasma concentration versus time profiles were generated for each patient. Pharmacokinetic parameters were estimated using Phoenix WinNonlin (version 8.0). According to SOP, concentrations reported as BQL were set to 0 except for the 0.5 h sample for subject #ON1102, which was set to LLOQ/2 ([…] value used in parameter calculations) and the 24 and 48 h samples.
# If the coefficient of determination for the terminal slope estimation was less than 0.8, T1/2 was not reported (NR). AUC extrapolated to infinity is not reported for any data set because in all cases the % extrapolated AUC was greater than 20% and thus the AUCinf estimate would not be reliable. The concentration at 10 minutes, the first time point measured (C10m), was also reported for each patient.
# The area under the plasma concentration versus time curves from dosing to the last time point with a measurable concentration (AUClast) was estimated by the linear trapezoid method. The last three or more time points were used to estimate the elimination rate constant (λz) which was used to estimate the terminal-phase half-life (T1/2) and AUC from zero to infinity (AUCINF) from the following equations: […]
substance,measurement,setting,value
PEO90-140-b-P(DBA60-150-r-ICG0-3-r-AMA0-3) [Compound 1],AUC0-24 hr,"Phase 1a, mean",495 µg·h/mL
same,AUCall,"Phase 1a, mean",842 µg·h/mL
same,AUClast,"Phase 1a, mean",682 µg·h/mL
same,C10 m,"Phase 1a, mean",31.7 µg/mL
same,Cmax,"Phase 1a, mean",31700 ng/mL
same,T1/2,"Phase 1a, mean",36.5 h
same,Tmax,"Phase 1a, mean",0.170 h
same,AUC0-24 hr,"Phase 1a, median",563 µg·h/mL
same,AUCall,"Phase 1a, median",1020 µg·h/mL
same,AUClast,"Phase 1a, median",891 µg·h/mL
same,C10 m,"Phase 1a, median",33.0 µg/mL
same,Cmax,"Phase 1a, median",33000 ng/mL
same,T1/2,"Phase 1a, median",32.5 h
same,Tmax,"Phase 1a, median",0.170 h
same,Plasma Conc,"Phase 1a, 0.170 hr, individual subject",28000 ng/mL and 34100 ng/mL and 33000 ng/mL
same,Plasma Conc,"Phase 1a, 0.170 hr, mean",31700 ng/mL
same,Plasma Conc,"Phase 1a, 0.500 hr, individual subject",23900 ng/mL and 30500 ng/mL and 31800 ng/mL
same,Plasma Conc,"Phase 1a, 0.500 hr, mean",28700 ng/mL
same,Plasma Conc,"Phase 1a, 1.00 hr, individual subject",23900 ng/mL and 32100 ng/mL and 25800 ng/mL
same,Plasma Conc,"Phase 1a, 1.00 hr, mean",27300 ng/mL
same,Plasma Conc,"Phase 1a, 3.00 hr, individual subject",24500 ng/mL and 28400 ng/mL and 27800 ng/mL
same,Plasma Conc,"Phase 1a, 3.00 hr, mean",26900 ng/mL
same,Plasma Conc,"Phase 1a, 8.00 hr, individual subject",20500 ng/mL and 24400 ng/mL and 28400 ng/mL
same,Plasma Conc,"Phase 1a, 8.00 hr, mean",24400 ng/mL
same,Plasma Conc,"Phase 1a, 24.0 hr, individual subject","BQL (BQL (<10 μg/mL), set = 0 for PK analysis) and 18.3 μg/mL and 15.6 μg/mL"
same,Plasma Conc,"Phase 1a, 24.0 hr, mean",11300 ng/mL
same,Plasma Conc,"Phase 1a, 48.0 hr, individual subject","BQL (BQL (<10 μg/mL), set = 0 for PK analysis) and 15.6 μg/mL and 10.8 μg/mL"
same,Plasma Conc,"Phase 1a, 48.0 hr, mean",8800 ng/mL
same,Plasma Conc,"Phase 1a, 72.0 hr, individual subject","BQL (BQL (<10 μg/mL), set = 0 for PK analysis)"
same,Plasma Conc,"Phase 1a, 72.0 hr, mean",0 ng/mL
same,Plasma Conc,"Phase 1a, 240 hr, individual subject","BQL (BQL (<10 μg/mL), set = 0 for PK analysis)"
same,Plasma Conc,"Phase 1a, 240 hr, mean",0 ng/mL
same,Exposure in relation to dose,"Phase 1a, 0.1-1.2 mg/kg",dose-related; also recorded: increased proportionally with dose
same,Mean AUC0-24hr,"Phase 1b, 1.2 mg/kg",638 µg·h/mL
same,Mean terminal-phase half-life,"Phase 1b, 1.2 mg/kg",46.4 h
same,AUC0-24 hr,"Phase 1b, individual subject",625 µg·h/mL and 606 µg·h/mL and 502 µg·h/mL and 787 µg·h/mL and 730 µg·h/mL and 585 µg·h/mL and 740 µg·h/mL and 630 µg·h/mL and 684 µg·h/mL and 626 µg·h/mL and 693 µg·h/mL and 562 µg·h/mL and 565 µg·h/mL and 520 µg·h/mL and 721 µg·h/mL
same,AUCall,"Phase 1b, individual subject",2690 µg·h/mL and 2150 µg·h/mL and 2120 µg·h/mL and 1460 µg·h/mL and 2550 µg·h/mL and 1100 µg·h/mL and 2740 µg·h/mL and 1170 µg·h/mL and 939 µg·h/mL and 1090 µg·h/mL and 3190 µg·h/mL and 1120 µg·h/mL and 747 µg·h/mL and 3350 µg·h/mL
same,AUClast,"Phase 1b, individual subject",1430 µg·h/mL and 1280 µg·h/mL and 1110 µg·h/mL and 1270 µg·h/mL and 1480 µg·h/mL and 961 µg·h/mL and 1580 µg·h/mL and 1020 µg·h/mL and 684 µg·h/mL and 971 µg·h/mL and 1740 µg·h/mL and 968 µg·h/mL and 957 µg·h/mL and 520 µg·h/mL and 1780 µg·h/mL
same,C10 m,"Phase 1b, individual subject",30.3 µg/mL and 31.4 µg/mL and 25.5 µg/mL and 40.0 µg/mL and 47.6 µg/mL and 32.6 µg/mL and 31.3 µg/mL and 36.5 µg/mL and 32.1 µg/mL and 35.8 µg/mL and 33.0 µg/mL and 28.0 µg/mL and 28.5 µg/mL and 27.5 µg/mL and 38.6 µg/mL
same,Cmax,"Phase 1b, individual subject",32400 ng/mL and 32600 ng/mL and 27600 ng/mL and 42200 ng/mL and 47600 ng/mL and 34300 ng/mL and 37700 ng/mL and 34100 ng/mL and 36400 ng/mL and 32000 ng/mL and 29900 ng/mL and 29200 ng/mL and 38600 ng/mL
same,T1/2,"Phase 1b, individual subject",43.3 h and 61.4 h and 34.4 h and 38.4 h and 33.6 h and 46.8 h and 34.5 h and 33.4 h and 27.7 h and 83.0 h and 45.5 h and 42.6 h and 77.9 h
same,Tmax,"Phase 1b, individual subject",3.00 h and 1.00 h and 0.500 h and 0.170 h
